In publication PMC6212398 (2018):
Where two headings read alike, the source gives them in different places.

Assays:
Assay in all cases: ITC
[1] = biological target: T1, Hsp27 alpha-crystallin domain (ACD, residues Q80–S176) (human, UniProt P04792 80-176)
[2] = biological target: Hsp27 GPG (isoleucine and valine of the IPV motif mutated to glycine) (human, UniProt P04792 1-205, isoleucine of the IPV (Ile179 as printed in p-0007) to glycine)
[3] = biological target: T1, Hsp27 alpha-crystallin domain (ACD, …); remark: listed apart in the source

T1 sequence (P04792 80-176): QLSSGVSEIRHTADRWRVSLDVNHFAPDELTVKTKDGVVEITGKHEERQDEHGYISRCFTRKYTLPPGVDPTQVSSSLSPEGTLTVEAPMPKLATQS
Sequence of Hsp27 GPG (isoleucine and valine of the IPV motif mutated to glycine) (P04792 other isoform, or with tags, fused parts or gaps with the stated changes): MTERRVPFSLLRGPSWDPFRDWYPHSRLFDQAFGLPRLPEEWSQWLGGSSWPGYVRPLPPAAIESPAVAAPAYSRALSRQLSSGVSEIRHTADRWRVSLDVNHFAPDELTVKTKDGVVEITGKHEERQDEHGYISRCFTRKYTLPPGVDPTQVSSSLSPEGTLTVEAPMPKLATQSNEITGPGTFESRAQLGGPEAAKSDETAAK

Binder	Kd [1]	Kd [2]	Kd [3]
EITAPVTHE (EITAPVTHE. The paper numbers the peptide from E176, so printed Ile179 (I of IPV) is UniProt I181. Peptide termini chemistry is not stated.) [Hsp27 IPV H peptide with Ile179 mutated to alanine]	12.6 µM	–	–
EITIPVTHE [Hsp27 IPV H peptide (EITIPVTHE)]	–	6.8 µM	7.3 µM

More lines, in order of falling Kd [1], values ahead:

Kd [1]	Kd [2]	Kd [3]	Binder
9.43 µM	–	–	EITIPVAHE (synthetic 9-mer; alanine-scan variant of the His-containing IPV peptide … (gives EITIPVAHE). The T184 label fits UniProt numbering, not the shifted numbering printed in the text. Termini not stated) [T184A]
4.23 µM	–	–	EITIAVTHE [Hsp27 IPV H peptide with the second X residue (Pro) of IXIXV mutated to alanine (EITIAVTHE)]
